From patent US20080108793

Test system: crotonyl-ACP

N-terminal His-tagged F. tularensis FabI
Km (crotonyl-ACP): 4.4 µM
